# Article PMC12162372, “Imaging Cell Surface Plectin in PDAC Patients – A First-In-Human Phase 0 Study Report” (Molecular Imaging and Biology, 2025)
# Ends that are not written are not given here.
# What was measured:
# CSP in pancreatic tumors [1] = target: T1, CSP in pancreatic tumors (Homo sapiens, UniProt Q15149); experiment: Ex vivo planar scintigraphy of resected tumor and adjacent normal tissue; assay type: in vivo; design: from tissue; host or cells: pancreatic tumours of patients, imaged in vivo and as resected specimens
# T1 sequence (Q15149 whole entry): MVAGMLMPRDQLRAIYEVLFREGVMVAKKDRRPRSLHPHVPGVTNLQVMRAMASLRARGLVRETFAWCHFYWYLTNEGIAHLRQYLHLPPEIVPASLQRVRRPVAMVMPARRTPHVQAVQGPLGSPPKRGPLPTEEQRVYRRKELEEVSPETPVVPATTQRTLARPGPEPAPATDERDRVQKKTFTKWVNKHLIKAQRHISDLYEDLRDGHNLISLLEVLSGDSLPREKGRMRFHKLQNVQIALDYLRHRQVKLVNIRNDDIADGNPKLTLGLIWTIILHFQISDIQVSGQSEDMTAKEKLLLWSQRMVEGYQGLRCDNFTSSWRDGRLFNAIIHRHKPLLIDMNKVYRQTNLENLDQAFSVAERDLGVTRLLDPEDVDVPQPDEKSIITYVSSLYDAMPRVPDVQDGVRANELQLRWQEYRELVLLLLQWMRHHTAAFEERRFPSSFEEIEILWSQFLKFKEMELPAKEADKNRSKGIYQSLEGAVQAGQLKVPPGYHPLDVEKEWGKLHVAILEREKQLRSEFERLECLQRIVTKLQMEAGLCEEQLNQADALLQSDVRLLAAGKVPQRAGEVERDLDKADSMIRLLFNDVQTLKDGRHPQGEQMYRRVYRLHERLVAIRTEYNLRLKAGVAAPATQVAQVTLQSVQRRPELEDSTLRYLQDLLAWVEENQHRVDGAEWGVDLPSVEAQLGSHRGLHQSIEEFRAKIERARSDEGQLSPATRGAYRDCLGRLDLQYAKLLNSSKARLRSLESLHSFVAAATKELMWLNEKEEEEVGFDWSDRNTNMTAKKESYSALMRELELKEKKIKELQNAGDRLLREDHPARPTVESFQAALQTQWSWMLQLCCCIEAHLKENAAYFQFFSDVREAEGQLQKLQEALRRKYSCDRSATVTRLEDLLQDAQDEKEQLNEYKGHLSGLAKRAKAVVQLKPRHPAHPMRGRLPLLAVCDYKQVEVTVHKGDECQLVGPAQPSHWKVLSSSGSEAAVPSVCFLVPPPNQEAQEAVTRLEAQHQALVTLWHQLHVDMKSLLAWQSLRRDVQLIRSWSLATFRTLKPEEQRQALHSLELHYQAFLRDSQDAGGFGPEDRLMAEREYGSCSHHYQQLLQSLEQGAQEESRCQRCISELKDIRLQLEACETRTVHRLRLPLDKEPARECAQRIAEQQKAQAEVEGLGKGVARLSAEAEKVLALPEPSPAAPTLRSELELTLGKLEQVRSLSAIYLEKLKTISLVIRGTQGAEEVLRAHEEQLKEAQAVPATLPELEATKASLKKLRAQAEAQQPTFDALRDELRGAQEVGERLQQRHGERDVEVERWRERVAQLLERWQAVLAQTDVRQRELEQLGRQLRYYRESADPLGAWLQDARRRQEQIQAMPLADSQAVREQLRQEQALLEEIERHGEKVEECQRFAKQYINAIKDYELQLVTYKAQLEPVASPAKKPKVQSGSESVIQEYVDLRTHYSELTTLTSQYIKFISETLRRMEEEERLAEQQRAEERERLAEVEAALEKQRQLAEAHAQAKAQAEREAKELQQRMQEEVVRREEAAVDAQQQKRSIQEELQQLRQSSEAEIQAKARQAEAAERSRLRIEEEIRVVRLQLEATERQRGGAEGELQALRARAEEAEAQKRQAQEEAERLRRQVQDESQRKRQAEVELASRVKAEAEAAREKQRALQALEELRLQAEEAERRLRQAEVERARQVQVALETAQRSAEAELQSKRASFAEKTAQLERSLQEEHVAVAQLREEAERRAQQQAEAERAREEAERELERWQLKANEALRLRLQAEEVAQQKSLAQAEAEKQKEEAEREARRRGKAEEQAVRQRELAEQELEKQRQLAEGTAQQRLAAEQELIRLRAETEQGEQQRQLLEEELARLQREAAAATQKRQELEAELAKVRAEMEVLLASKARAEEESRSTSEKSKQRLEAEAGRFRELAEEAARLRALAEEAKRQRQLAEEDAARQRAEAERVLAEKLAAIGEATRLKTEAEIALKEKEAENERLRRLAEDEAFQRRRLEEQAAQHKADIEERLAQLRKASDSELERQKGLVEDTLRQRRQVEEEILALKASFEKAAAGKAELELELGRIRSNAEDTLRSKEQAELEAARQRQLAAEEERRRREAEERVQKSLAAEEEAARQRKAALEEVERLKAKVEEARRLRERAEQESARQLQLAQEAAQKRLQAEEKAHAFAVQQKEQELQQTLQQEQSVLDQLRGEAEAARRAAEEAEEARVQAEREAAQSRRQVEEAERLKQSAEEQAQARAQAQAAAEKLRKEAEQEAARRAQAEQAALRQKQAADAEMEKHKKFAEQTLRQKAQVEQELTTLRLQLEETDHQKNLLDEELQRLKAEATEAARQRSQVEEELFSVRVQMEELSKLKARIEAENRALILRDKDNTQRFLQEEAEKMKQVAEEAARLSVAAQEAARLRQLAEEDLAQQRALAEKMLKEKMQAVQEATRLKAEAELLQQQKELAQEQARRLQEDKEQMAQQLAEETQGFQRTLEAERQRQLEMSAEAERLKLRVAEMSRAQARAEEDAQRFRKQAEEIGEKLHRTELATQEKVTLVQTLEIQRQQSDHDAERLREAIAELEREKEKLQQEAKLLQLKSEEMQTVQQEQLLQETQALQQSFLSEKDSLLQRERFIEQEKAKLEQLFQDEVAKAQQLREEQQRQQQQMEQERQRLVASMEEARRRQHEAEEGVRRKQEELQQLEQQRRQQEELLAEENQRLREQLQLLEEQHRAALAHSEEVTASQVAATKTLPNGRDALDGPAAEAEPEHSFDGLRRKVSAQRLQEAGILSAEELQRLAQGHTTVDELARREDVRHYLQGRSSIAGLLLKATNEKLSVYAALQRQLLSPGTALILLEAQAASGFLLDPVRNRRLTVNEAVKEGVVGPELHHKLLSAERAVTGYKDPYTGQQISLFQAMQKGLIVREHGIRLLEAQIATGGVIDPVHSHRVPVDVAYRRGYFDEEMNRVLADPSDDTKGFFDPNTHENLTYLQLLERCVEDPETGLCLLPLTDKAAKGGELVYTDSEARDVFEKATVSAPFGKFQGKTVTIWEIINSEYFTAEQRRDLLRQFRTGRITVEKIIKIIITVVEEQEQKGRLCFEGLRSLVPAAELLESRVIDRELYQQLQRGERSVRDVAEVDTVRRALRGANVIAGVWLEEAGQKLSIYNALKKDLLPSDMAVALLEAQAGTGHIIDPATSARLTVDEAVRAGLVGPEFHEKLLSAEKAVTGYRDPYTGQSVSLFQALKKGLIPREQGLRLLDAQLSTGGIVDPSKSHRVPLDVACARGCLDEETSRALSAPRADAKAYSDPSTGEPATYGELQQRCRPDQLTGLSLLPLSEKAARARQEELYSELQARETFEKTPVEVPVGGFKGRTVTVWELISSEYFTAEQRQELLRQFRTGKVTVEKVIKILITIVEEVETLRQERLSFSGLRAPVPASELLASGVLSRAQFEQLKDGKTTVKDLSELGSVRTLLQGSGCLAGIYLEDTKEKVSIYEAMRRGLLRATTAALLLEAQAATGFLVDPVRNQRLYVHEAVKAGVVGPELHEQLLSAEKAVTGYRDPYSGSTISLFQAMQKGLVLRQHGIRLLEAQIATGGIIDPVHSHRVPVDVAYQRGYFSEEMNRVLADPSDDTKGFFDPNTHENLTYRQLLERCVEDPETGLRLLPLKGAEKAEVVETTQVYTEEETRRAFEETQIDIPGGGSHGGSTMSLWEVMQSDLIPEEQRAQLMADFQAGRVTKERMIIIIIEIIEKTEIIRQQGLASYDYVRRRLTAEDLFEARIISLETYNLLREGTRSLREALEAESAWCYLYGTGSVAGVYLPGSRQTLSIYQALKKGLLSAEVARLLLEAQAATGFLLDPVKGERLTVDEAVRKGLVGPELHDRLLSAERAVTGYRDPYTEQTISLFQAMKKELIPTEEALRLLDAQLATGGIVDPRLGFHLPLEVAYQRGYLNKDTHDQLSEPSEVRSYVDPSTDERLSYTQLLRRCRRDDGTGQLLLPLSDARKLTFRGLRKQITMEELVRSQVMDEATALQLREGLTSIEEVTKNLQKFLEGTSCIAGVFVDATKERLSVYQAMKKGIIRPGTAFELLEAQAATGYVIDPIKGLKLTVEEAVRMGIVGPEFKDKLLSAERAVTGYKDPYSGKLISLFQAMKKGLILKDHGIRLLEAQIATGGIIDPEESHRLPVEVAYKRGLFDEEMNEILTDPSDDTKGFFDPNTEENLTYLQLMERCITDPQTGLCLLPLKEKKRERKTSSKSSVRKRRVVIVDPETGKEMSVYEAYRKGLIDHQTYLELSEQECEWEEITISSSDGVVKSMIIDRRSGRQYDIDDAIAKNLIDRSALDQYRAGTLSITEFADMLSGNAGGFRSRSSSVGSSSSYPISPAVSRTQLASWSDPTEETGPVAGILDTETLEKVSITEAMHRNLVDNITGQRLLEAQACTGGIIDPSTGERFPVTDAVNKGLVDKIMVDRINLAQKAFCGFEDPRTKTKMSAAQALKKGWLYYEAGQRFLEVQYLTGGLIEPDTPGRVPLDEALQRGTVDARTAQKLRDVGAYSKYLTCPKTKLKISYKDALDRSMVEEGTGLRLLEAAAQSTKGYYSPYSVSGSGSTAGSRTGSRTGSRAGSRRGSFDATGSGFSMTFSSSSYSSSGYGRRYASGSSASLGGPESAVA
# Method: Following surgery, ex vivo planar images of the resected tumor and adjacent normal tissue (e.g., pancreas and duodenum) were obtained at 28 h post-injection. This timing aligns with surgical resection, allowing immediate imaging of fresh specimens. A white light image was collected for one patient to confirm tumor localization, but these images were not systematically obtained.
# For ex vivo images, tumor ROIs were drawn using white light imaging, with the surrounding tissue considered background. […] The activity was calculated using planar data methods, ignoring the self-attenuation of the tissue because of tissue thickness.
# CSP in pancreatic tumors [2] = target: T1, CSP in pancreatic tumors; design: CSP, typically localized intracellularly in healthy cells, is aberrantly expressed on the surface of cancer cells; from tissue; host or cells: pancreatic tumours of patients, imaged in vivo and as resected specimens; conditions: in vivo, iv, 100 ug
# Method: (§1) Each patient received a single intravenous 100 µg bolus dose of PTP-01 labeled with 370 MBq ^111In. Whole-body planar scintigraphy was performed at 10 min post-injection, followed by scans at 1, 2, 3, 4, 20, and 50 h. SPECT/CT imaging was performed at 4, 20, and 50 h post-injection using a Siemens Symbia™ T6 dual-head SPECT/CT system with low-energy high-resolution (LEHR) collimators optimized for ^111In imaging. […] Quantitative analysis was conducted at the time using fused SPECT/CT images, and planar imaging remains available for biodistribution assessment. Tumor ROIs were initially defined using fused SPECT/CT images and cross-referenced with planar data for consistency. […] However, attenuation correction was not applied to the SPECT images, as full quantitative SPECT reconstruction was not supported by the scanner at the time. Quantitative analysis (%ID) was derived from planar scintigraphy data using calibration factors from a standard source (syringe) imaged under identical conditions. While SPECT/CT facilitated ROI placement, quantitative measurements were based on planar scintigraphy due to the absence of attenuation-corrected SPECT data. […]
# For in vivo images, we generated eight ROIs for each patient, including bladder, heart, left kidney, right kidney, liver, syringe, whole body, and tumor. […] Results were expressed as percent injected dose (%ID). […]
# CSP = conditions: input parameter applied to all patients in the Krogh cylinder model, no reference given, cited from earlier work
# [3] = human, in vivo
# Method: as §1
# Blood clearance parameters were calculated individually for each patient based on a biexponential fit to blood %ID/g data. […]
# [4] = test system: CSP (plectin) in murine tumor models; conditions: preclinical SPECT imaging of murine tumor models; cited from earlier work
# Source text: The CSP-targeting peptide KTLLPTP has been adapted for numerous applications as a targeting ligand for imaging agents. […] Tumor models with higher CSP levels also had correspondingly high tumor uptake of ^99mTc-KTLLPTP. Here we report the results of a phase 0 trial examining a tetrameric version of KTLLPTP labeled with ^111In called PTP-01 (NCT01962909) in patients with resectable p ...
Substance,"tumor-to-background ratio (CSP in pancreatic tumors [1]; all three patients, confirmed by ex vivo planar scintigraphy)","tumor-to-background ratio (CSP in pancreatic tumors [1]; ex vivo planar scintigraphy of resected specimens, 28 h post-injection, mean across patients)",average cumulative retention in tumor (CSP in pancreatic tumors [2]),Association rate constant (kon) (CSP),Internalization half-life (CSP),Residualization half-life (CSP),Kd (CSP; read-out: Dissociation constant (KD)),"blood concentrations, fold higher than in the other two patients [3]",elimination half-life (T1/2) ([3]; iv),"tumor accumulation, biodistribution and blood clearance [4]"
"PTP-01: tetrameric version of KTLLPTP on a branched PEG linker, labeled with ^111In via DOTA; CSP-targeting imaging agent (also: tetramer on branched PEG linker, DOTA chelator labelled with 111In)",exceeding 2,2.18 ± 0.14,8.90 ± 3.31 %ID,100000 M⁻¹ s⁻¹,13 h,120 h,90 nM,50-70 fold,5 to 22 h,
^99mTc-KTLLPTP,,,,,,,,,,a tumor accumulation and favorable biodistribution in addition to fast blood clearance
